Data: patent US20250313626A1 (HARBOUR BIOMED SHANGHAI, published 2025)
Like-named read-outs stand apart in the source and are kept apart here.

Assays:
Mouse CD200R1-His = biological target: T1, Mouse CD200R1-His (mouse, UniProt Q9ES57 26-238, limits assumed); assay: BLI (Octet), antibody captured on anti-human Fc sensor
T1 sequence (looked up): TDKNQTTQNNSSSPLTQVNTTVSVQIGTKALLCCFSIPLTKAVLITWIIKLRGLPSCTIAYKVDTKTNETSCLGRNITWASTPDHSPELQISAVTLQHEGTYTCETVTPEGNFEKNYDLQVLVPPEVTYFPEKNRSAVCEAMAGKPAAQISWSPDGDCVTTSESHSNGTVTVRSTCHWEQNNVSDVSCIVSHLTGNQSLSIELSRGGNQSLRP
Description: To determine the binding affinities of the anti-CD200R1 antibodies to CD200R1a proteins of various species (mouse, human, Cynomolgus macaques), bio-layer interferometry (BLI) assays were carried out using an Octet® RED96e instrument. Antibodies were produced as described in Example 3.4 and diluted to 5 μg/mL using freshly prepared 1× kinetic buffer (10× kinetic buffer (Catalog #18-1105, ForteBio) was diluted with PBS(Catalog #E607016-0500, BBI Life Sciences)) and were captured on the surface of anti-human Fc (AHC) Octet biosensors (Catalog #18-5060, ForteBio) to reach capture levels between 0.9-1.2 nm. The biosensors having the captured anti-CD200R1 antibodies were then dipped in wells containing 2-fold serial dilutions of CD200R1a proteins to detect association signals, followed by dissociation steps in wells containing 1× kinetic buffer. The sensorgrams were recorded and the reference signals were subtracted before curve fitting using ForteBio Data Analysis 11.0 software. Association rates (kₒₙ) and dissociation rates (koff) were calculated using a simple one-to-one Langmuir binding model. The equilibrium dissociation constant (KD) was calculated as the ratio of koff/kₒₙ.

[1] = biological target: T2, CD200R1a on PathHunter Jurkat CD200R1a signaling cells (Eurofins DiscoverX, 93-1136C19) (human, UniProt Q8TD46 25-348); assay: cell-based or functional assay
T2 sequence: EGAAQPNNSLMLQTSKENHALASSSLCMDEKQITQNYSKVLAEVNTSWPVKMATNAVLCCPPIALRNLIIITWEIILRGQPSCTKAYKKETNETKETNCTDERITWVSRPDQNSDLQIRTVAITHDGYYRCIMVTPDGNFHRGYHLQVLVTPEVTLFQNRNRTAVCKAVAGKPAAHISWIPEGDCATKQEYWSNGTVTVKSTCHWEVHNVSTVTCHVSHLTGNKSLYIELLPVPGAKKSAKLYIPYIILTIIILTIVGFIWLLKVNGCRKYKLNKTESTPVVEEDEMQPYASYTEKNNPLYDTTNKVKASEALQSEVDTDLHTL

[2] = biological target: T3, human CD200R1 isoform a on CHOK1 cells (CHOK1/hCD200R1a) (human, UniProt Q8TD46 25-348); assay: flow cytometry blocking assay: antibody titrated against biotin-labelled human CD200 binding to CHOK1/hCD200R1a cells; head prints EC50 without unit, x axis Log [Ab] (nM), y axis Inhibition %
T3 construct: also called CHOK1/CD200R1a
T3 sequence: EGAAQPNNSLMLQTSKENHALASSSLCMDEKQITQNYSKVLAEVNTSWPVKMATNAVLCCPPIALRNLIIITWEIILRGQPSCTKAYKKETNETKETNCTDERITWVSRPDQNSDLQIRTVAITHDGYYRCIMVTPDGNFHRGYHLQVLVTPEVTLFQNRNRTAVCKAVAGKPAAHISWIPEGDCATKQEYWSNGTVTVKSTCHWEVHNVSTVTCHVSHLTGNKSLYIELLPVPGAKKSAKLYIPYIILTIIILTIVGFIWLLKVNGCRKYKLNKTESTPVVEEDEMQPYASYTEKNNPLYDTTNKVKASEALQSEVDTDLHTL
Description: (§1) In brief, CHOK1/hCD200R1a cells were digested and resuspended in 2% BSA in PBS. […] The cells were placed at 4° C. and incubated for 1 hour in the dark. […] 100 μL/well of pre-cooled PBS containing 2% BSA was added to rinse the cells twice, centrifugation was performed at 500 g, 4° C. for 5 minutes, and the supernatant was discarded. Fluorescent secondary antibody (PE Streptavidin, BD, Cat #: 554061, 1:200) was added at 100 μL/well, and incubation was performed at 4° C. for 30 minutes in the dark. The cells were washed twice with 200 μL/well of pre-cooled PBS, and were centrifuged at 500 g, 4° C. for 5 minutes, and the supernatant was discarded. Finally, 200 μL/well of pre-cooled PBS was used to resuspend the cells, and the fluorescence signal values were read using ACEA Novocyte 3000 flow cytometer. IC50 values were calculated.

[3] = biological target: T3, human CD200R1 isoform a on CHOK1 cells …; assay: flow cytometry, CHOK1/hCD200R1a cells (FITC-Mean); table beside the curves, head without unit, x axis Log [Ab] (nM)
[4] = biological target: T3, human CD200R1 isoform a on CHOK1 cells …; assay: flow cytometry blocking assay: biotin-labelled human CD200 binding to CHOK1/hCD200R1a cells; y axis Inhibition %
Description: as §1

[5] = biological target: T2, CD200R1a on PathHunter Jurkat CD200R1a …; assay: cell-based or functional assay; remark: listed apart in the source
[6] = biological target: T3, human CD200R1 isoform a on CHOK1 cells …; assay: flow cytometry, CHOK1/hCD200R1a cells (FITC-Mean); table beside the curves
Description: (§2) This example is intended to investigate the in vitro binding activity of human anti-CD200R1 monoclonal antibodies to human/Cynomolgus macaques CD200R1a expressed on the surface of cells. The anti-CD200R1 antibodies were produced as described in Example 3.4 and the binding experiments at the cell level were performed using CHOK1/hCD200R1a and CHOK1-cynoCD200R1a.
(§3) Briefly, CHOK1/hCD200R1a cells and CHOK1-cynoCD200R1a cells were digested, and collected, and then were resuspended in PBS containing 2% BSA, respectively. The cell density was adjusted to 1×10⁶ cells/mL. The cells were seeded in a 96-well V-bottom plate (Corning, #3894) at 100 μL/well, followed by the addition of test antibodies and reference antibodies in a series diluted concentration, each at 100 μL/well. The cells were incubated away from light at 4° C. for 1 h. Thereafter, the cells in each well were rinsed twice with 100 μL of pre-cooled PBS containing 2% BSA, and centrifuged at 500 g at 4° C. for 5 min, and then the supernatant was discarded. 100 μL of fluorescent secondary antibody (Alexa Fluor 488-conjugated AffiniPure Goat Anti-Human IgG, Fcγ Fragment Specific, Jackson, #109-545-098, diluted in a 1:1000 ratio) was added in each well, and the plate was incubated away from light at 4° C. for 1 h. The cells in each well were rinsed twice with 100 μL of pre-cooled PBS containing 2% BSA, and centrifuged at 500 g at 4° C. for 5 min, and then the supernatant was discarded. Finally, the cells in each well were resuspended in 200 μL of pre-cooled PBS containing 2% BSA, and the fluorescence signal values were read using a BD CantoII flow cytometer.

[7] = biological target: T4, Cynomolgus macaques CD200R1 isoform a on CHOK1 cells (CHOK1/cynoCD200R1a) (Cynomolgus macaques); assay: flow cytometry, CHOK1/cynoCD200R1a cells (APC-A Mean); table beside the curves
T4 chain: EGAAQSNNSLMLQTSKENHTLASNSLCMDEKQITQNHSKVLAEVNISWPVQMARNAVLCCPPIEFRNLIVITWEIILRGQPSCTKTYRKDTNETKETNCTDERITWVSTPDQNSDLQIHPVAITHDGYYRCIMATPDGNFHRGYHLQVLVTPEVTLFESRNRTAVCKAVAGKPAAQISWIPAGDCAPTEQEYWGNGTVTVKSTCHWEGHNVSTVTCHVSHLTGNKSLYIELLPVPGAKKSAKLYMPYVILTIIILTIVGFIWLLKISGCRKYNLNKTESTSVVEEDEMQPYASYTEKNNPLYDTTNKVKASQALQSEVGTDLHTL

[8] = biological target: T4, Cynomolgus macaques CD200R1 isoform a …; assay: as above
[9] = biological target: T3, human CD200R1 isoform a on CHOK1 cells …; assay: flow cytometry, CHOK1/hCD200R1a cells (FITC-Mean); table beside the curves, head without unit, x axis Log [Ab] (nM); remark: listed apart in the source
[10] = biological target: T3, human CD200R1 isoform a on CHOK1 cells …; assay: flow cytometry blocking assay: antibody titrated against biotin-labelled human CD200 binding to CHOK1/hCD200R1a cells; head prints EC50 without unit, x axis Log [Ab] (nM), y axis Inhibition %; remark: listed apart in the source
Description: as §1

[11] = biological target: T3, human CD200R1 isoform a on CHOK1 cells …; assay: flow cytometry, CHOK1/hCD200R1a cells (FITC-Mean); table beside the curves; remark: listed apart in the source
Description: as §2, §3

[12] = biological target: T3, human CD200R1 isoform a on CHOK1 cells …; assay: flow cytometry blocking assay: biotin-labelled human CD200 binding to CHOK1/hCD200R1a cells; y axis Inhibition %; remark: listed apart in the source
Description: as §1

B1: PR005512 (antibody, human IgG1, kappa, L234A L235A, V domains shown)
VH: QVQLVESGGGVVQPGRSLRLSCVASGFTFSSYGMHWVRQAPGKGLEWVAIIWNDGSNRYYADSVKGRFTISRDNSKNTLYLQMNSLRAEDTAVYYCARDRIVGAGFDYWGQGTLVTVSS
VL: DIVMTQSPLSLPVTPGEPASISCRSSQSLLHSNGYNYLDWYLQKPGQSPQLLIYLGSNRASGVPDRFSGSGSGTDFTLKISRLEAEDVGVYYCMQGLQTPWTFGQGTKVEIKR
notes: also called PR60-012; PRE04512
Mouse CD200R1-His
  binding result: no binding
[1]
  IC50 of the inhibition of CD200-induced PathHunter Jurkat CD200R1a luminescence (CHOK1/hCD200 cells as CD200 source); head without unit, x axis Log [Ab] (nM): 2.63 nM

B2: PR007444 (antibody, human IgG1, kappa)
heavy: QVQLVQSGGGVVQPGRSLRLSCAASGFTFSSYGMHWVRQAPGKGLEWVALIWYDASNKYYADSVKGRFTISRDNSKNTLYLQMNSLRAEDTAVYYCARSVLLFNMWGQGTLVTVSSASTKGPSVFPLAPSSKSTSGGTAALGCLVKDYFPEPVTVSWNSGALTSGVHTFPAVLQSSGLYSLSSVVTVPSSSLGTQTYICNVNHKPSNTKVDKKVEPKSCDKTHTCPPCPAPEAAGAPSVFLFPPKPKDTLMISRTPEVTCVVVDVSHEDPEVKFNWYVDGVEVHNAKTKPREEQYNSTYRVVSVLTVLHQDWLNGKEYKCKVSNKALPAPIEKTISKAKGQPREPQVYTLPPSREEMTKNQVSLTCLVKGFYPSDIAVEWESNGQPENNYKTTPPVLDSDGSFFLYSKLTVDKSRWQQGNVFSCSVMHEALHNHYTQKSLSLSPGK
light: DIQMTQSPPSLSASVGDRVTITCRASQSISSYLNWFQQKAGKAPKLLISATSNLQSGVPSRFSGSGSGTDFTLTISSLQPEDLATYYCQQTYSSPYTFGQGTKVEIKRTVAAPSVFIFPPSDEQLKSGTASVVCLLNNFYPREAKVQWKVDNALQSGNSQESVTEQDSKDSTYSLSSTLTLSKADYEKHKVYACEVTHQGLSSPVTKSFNRGEC
notes: PTM variant of PR006895 (human IgG1)
[2]
  EC50: 92.6 pM
[3]
  EC50: 150 pM
[4]
  Blocking(Max): 86.6%
[5]
  IC50 of the inhibition of CD200-induced PathHunter Jurkat CD200R1a luminescence (CHOK1/hCD200 cells as CD200 source): 755 pM
[6]
  MFI(Max): 10800
[7]
  EC50: 8740 pM
  MFI (MAX): 51700

B3: PR007974 (antibody, human IgG1, kappa, V domains shown)
VH: QVQLVESGGGVVQPGRSLRLSCAASGFTFSYYGFHWVRQAPGKGLEWLGLIWSDARHKDYADSVKGRFTISRDNSKNTLYLQMNSLRAEDTAVYYCARDRIVGEGFDYWGQGTLVTVSS
VL: DIVMTQSPLSLPVTPGEPASISCRSSQSLLHRSGYNYLDWYLQKPGQSPQLLIYLGSYRASGVPDRFSGSGSGTDFTLKISRVEAEDVGVYYCQQGIQTTYTFGQGTKLEIKR
notes: PTM variant of PR006839 (human IgG1)
[8]
  EC50: 6820 pM
  MFI (MAX): 52200
[9]
  EC50: 277 pM
[10]
  EC50: 240 pM
[11]
  MFI(Max): 18900
[12]
  Blocking(Max): 98%
